# From a protein production outcome set (Wang et al. 2014)
# Assay: label from the status in PepcDB records
row,Sequence,protein production
1,MRLSELGTGEKGVIVKVLGHGGFRKRIVEMGFIKGKTVEVLLNAPLKDPIKYKVLGYEISLRRQEAEMIEVVSEEEAKKQAEKAVYHEGLPEDVSVKEEDMKRLALGKRRTINVALVGNPNSGKTSLFNLASGAHEHVGNYSGVTVDAKEGYFDFEGYHFRIVDLPGTYSLSAYTPEEIYVRRHIVDETPDVIINVVDSSNLERNLYLTTQLIDMNVRMVVALNIYDELESSGNTLDYHLLSKLFGVPMVPTVSKKNRGLDTLFHVVINLYEGVDFFDKQGNMNPEVLKDLTEWHDSLEDRKNHEEEHLEDYVREHKRKGRVFRHIHINHGPDLEKAIDAVKEEVSKNEFIRHKYSTRFLSIKLLENDPDIESFVRTLPNAGEIFRIRDKMAKRVQETMNEDCESAITDAKYGFISGALKETFTDNHLEQAQTTKVLDAIVTHRIWGYPIFFLFMYLMFEGTFVLGEYPMMGIEWLVGQIGDLIRNNMSEGPLKDMLVDGIVGGVGGVIVFLPNILILYFCISLMEDSGYMARAAFIMDKIMHKMGLHGKSFIPLIMGFGCNVPAIMASRTIENRKSRLITMLINPLMSCSARLPIYLLLVGAFFPNNASLVLLSIYAIGIFLAVLLARLFSKFLVKGDDTPFVMELPPYRMPTAKSIFRHTWEKGAQYLKKMGGIIMIASIIIWFLGYYPNHEAYETVAEQQENSYIGQLGRAIEPVIKPMGFDWKLGIGLISGVGAKELVVSTLGVLYVDDPEADEASLAERIPITPLVAFCYMLFVLIYFPCIAALAAIKQESGSWKWALFAACYTTGLAWLVAFSVYQIGGMFV,failed
2,MRGYYDEISFDVNTTAKKMHLFLMRSIASYDVTPEQWSVLEGIEANEPISQKEIALWTKKDTPTVNRIVDVLLRKELIVREISTEDRRISLLSLTDKGRKETTELRDIVEASCEKMFAGVTRTDLEQFTAILKNISTNIE,not failed
3,MVIFIMKKRYICILPYSLSYGGVFIDCKEVIANYWNFRSSTYKNGINGFDEEERAVWKQIFENSLASGKRLKVLDVGTGTGFLALLFAEMGHEVSGIDLSEGMLEKARHNADNMGLEISLFHGDAENLPFEDCSFDLVVNKYLLWTLQEPASAVREWKRVLKPGGMIFAIDGNWFDPRPDRYIKRMLYGLAERFAKKNQYNLIFKKSYGPIRNSLPLYEKISPKNISFLFSETGLMNTEISPLLEVQKFQRNRHSFSRRIFENNSIFLISGQKNLEHHHHHH,failed
4,MTITILAFIIALFFAMNIGASGAAASMGIAYGAGAVRKRQAALWISGIGVFLGAMIGGGEVVKTIGSGIIPASILNVHIVVIILGSSAISLFIANIAGIPLSTSEVTVGSIVGVGVAFQAVFTDKLLVIVMYWLIIPIAAFFLAFLIGQLLKKTEAKLRWLKQQKWARLLTALVILTGFLEAFSAGMNNVANSVGPLVGAGLLSVGSGTFLGGLFVAIGAICLGSRVIETNGKKITEFSLLQGSCVSGLGASLVIGASLFGIPVPQTQITTCSIIGIGLSEKGRAIFRKSVILKLMKVWVVSPVFSLVISYSLVKIFLDFDLYSVAVVLCVFLATLGSISLMKHARQKQSDVRRNRDHVKSIVGGRGRKREPAAWRDF,failed
5,GVLDDIRFGVRRTLNARIASQAQWYALGAEQLARTRIAQLMDREPNKTTLEGGWNGRVISFPIEQGRMEAKLTDATGCFNLNSVVEANQGEPFRRRELGVRQFTTLLSLVGVSNGPELAENLADWMDSNDVGRAEAEDPGYAQLAQPYRTAGGPLAEVSELRAIRGFTPSVYAALRPYVCALPTTDLSPINVNTLPPERALLLTALTEGRIGRETAARVLSGRPVNGWPDAQAFWGQQALVATPPGDVVRDQIKFRTRFFALDSQIVFADMPVFMTALFETPSASKVILA,failed
6,MAEVHNQLEIKFRLTDGSDIGPKAFPDATTVSALKETVISEWPREKENGPKTVKEVKLISAGKVLENSKTVKDYRSPVSNLAGAVTTMHVIIQAPVTEKEKKPKGDPKMNKCVCSVM,not failed
7,MDIKKIAQDDKSLGIDESNKDLFQDGILNIALFGVDSREHDNVGRSDSIIIATIDTKHDKIKLTSLMRDSYVEVDGHGKTKLTHAYAYGGPTLALKTINENFGLDIKDYVTVNFDNLAEIIDDLGGVPINIKPYEVKEVNNYAKNVAEIAGREYTPVSEGEQVLNGAQAVGYSRIRYVGDGDYERTERQRNVLDAIIKKLSALKPSEYPETIKKLLPYVETNLTPSKILSIATSVASTGIPPVENMRFPLDGYCKGEMIDGVWYLTFDEAKTKEQIQDYIYKDVNPKLEHHHHHH,failed
8,MSTTYYWLCLLASIVFEVAGTSVMKLSQETWPLLGMGCMYLLLGLSYFFLARAVVKLPVGVAYAFWEGLGLTLITIVSVTLLDERLDAMRLAALGMVLAGTLLVHHGTAHGRDDEEAEAASGGEGRI,failed
9,MNDFKGWETRSYLFLALMVGVQLVAFAINPSNWITLVGGLAGIICVNLIAQGKVSNYIFGLISAVIIGYFGLVTRVYAEVLLQSFYIIMDITGLYAWLRASEDGSGQVTEVKVLKGIQWLYAFFTWLLIGVAAYILLGFVNDAQQTLDAITFSVSATGMLLMIKRYQSQFVFWLLGNIFSILLWFRAGTHAGGDYAIFVMYCMYTFNSIFGMFNWLKIKNKMEKNR,failed
10,MSRARSLFPEMSDFFAGLPSWASIRPVFGDHIIRIEDEMKDGGYELRAEVPGIDPAKDIDITVRDGVLTIKAERTEKKETNGRSEFAYGSFMRSVTLPPGADEDAIKAGYDKGILTISVPVTEPEAAAEKRVAVETVSPLEHHHHHH,failed
11,MELLKLNRSVQGTGPGPGASLCRPGAPLLNSSSVGNLSCEPPRIRGAGTRELELAIRITLYAVIFLMSVGGNMLIIVVLGLSRRLRTVTNAFLLSLAVSDLLLAVACMPFTLLPNLMGTFIFGTVICKAVSYLMGVSVSVSTLSLVAIALERYSAICRPLQARVWQTRSHAARVIVATWLLSGLLMVPYPVYTVVQPVGPRVLQCVHRWPSARVRQTWSVLLLLLLFFIPGVVMAVAYGLISRELYLGLRFDGDSDSDSQSRVRNQGGLPGGAGPREQNLGEADVWRATGPAGVGGTEMKVRVRRKLEMELSWERRSGGDWAGDWGDSPFSLTAHPLCSGAVHQNGRCRPETGAVGEDSDGCYVQLPRSRPALELTALTAPGPGSGSRPTQAKLLAKKRVVRMLLVIVVLFFLCWLPVYSANTWRAFDGPGAHRALSGAPISFIHLLSYASACVNPLVYCFMHRRFRQACLETCARCCPRPPRARPRALPDEDPPTPSIASLSRLSYTTISTLGPG,failed
12,MRALLLIAALLAPTAALAQQQLPLWPNGAPGFESRKAIPEQAADYWVKSVNNPSITAYLPPKETATGAALIVLPGGGHRILVIHSEGSDVAKVMNPKGVAVFVVKYRLFREEGSPYTIDHARQDAVRAVRYVRAHAAVFGVDPKRIGLMGFSAGGEAVNLAVYQGAANDPKTDAVDAVSARPDFQVLVYPGPLGVPEKVPTDTPPAFIVAANDDECCSAPPVDLLTRFRAAKVPIEFHLFQSGGHAFNMGLRSHKAALKAWPDRLFDWLADNGWLKAG,failed
13,MYIPNAFRESDTHNLQEHMDKTRLAILVTQGDDGLHATHLPLLLRSDEGPYGTLYGHMAKANPQWQQLNADAEAMVIFPGEDAYVSPSFYPSKAEHGKVVPTWNYLAVHAYGQAECFTDPDRLHQLLNDLTDRHESSRAQPWSINDAPADYIAKMLGAIVGFSIPVQRLQGKRKLSQNRSAEDMAGVRDGLGASHLANDQQIARLMSGWRPS,not failed
14,LKASGVQAQMAKQQEQDPTNLYISNLPLSMDEQELENMLKPFGQVISTRILRDSSGTSRGVGFARMESTEKCEAVIGHFNGKFIKTPPGVSAPTEPLLCKF,not failed
15,MRPAVIAATGLYTPPDSVSNAELVEAFNTYVANFNAANKARIEAGEIEPLQPSSSEFIEKASGIKSRYVVAKPGIVDPDVMRPIIPERSNDELSILAEMAVTAAEQAIERWGKPRERIGAVLCACSNMQRAYPAMAIEVQNALGLGGFAFDMNVACSSATFGLKTAADFVGGGSVDAVLMVNPEICSGHLNFRDRDSHFIFGDVATAAIVERADDAQGGWS,failed
16,MNLPILPTISTSFIVISAILIAIGWRQIWKRKIESHKKVMLAAAFFALAFFIIYASRTIFIGNTAFGGPDSIKIYYTIFLIFHINLATIGGILGLVQIITAFKDKFKVHRFVGPIASIVWFCTAITGVAVYLLLYVLYPGGETTSLLKATFGL,failed
17,MKFVQERRLTVKTTFSKEYKIFIFGLLISRIGDSLYTFALPWIAYQLTGSAVIMGSLFAVNVLPIVLFGPLVGVLVDRYDRKKLLWMADIINIILVSLVPILHALHLLEVWHLYVITFILAVMSMLFDVTTVTVIPHIAGASLTKANSLYQMVNQLASLFGPIIAGLFISFIGGFQVLWINVLSFIATLIAVIILPSMKNLNKKNTDKKTLQNVLNDLFDGFKWLINDRLNIALSLQAMVGNFGASAVLGVLMYYLLSTLNLTSAQSGYNYTLIGIGGLLGSLIAVPLEKKFRRGILIPLLLFFGALGLTFALWSTYWLAPGIAFGIAMTCNITWNTIVTSIRQETVPSNLQGRVLGFSRVLTRLSMPLGALVGGIISAYNPVFIFALAAFTKIIEVFIALCSPIRKL,failed
18,PSNAMKQAWLQISQDNKLMSCNDTSKANALLDMVTQGLNPAKNQCYFIPYGNKMQLQRSYHGNVMMLKRDAGAQDVVAQVIYKGDTFKQEMGETGRIKAIKHEQDFFNIDKENIIGAYCTIVFNDGRDNYIEVMTIEQIKQAWMQSSMIKDEKALQNSKTHNNFKEEMAKKTVINRAAKRYINTSTDSNLFKYAQESEQRQRKEVLDAEVEENANQE,not failed
19,MVSFDHATLGYITFVLMNFSMLSGAFIFLSKKKQHWIKVHLLVSILTYIFMVWTIWVVR,failed
20,MDVSVFLAALGISLLELTEAGAIAAIYHNIYKNNLPFIYAVLGVAIVLIPTFTLGKLIYLVPLNYVLLASAVILFYFGYRLIRSARRSFKGIKKKGGEEKEEGLSVVFTVSAIEGLEASLVILALIPQSYSSAVMGAILASVLVVILTAILKSQVARIRLPHLKFVLSALLFSLGTLWISEVVFDIPDLILPLFFLAYLGINYVIIKI,failed
21,MGERIIPKNMKPMNGMLLEHLARYYFSTPYASGRVLDIACGTGYGSVMVAKTRKTEVDQVLGVDFDADVIHYAKQNYYHPKVSFLVGDAMDPYLRNQIGTFDTILSFETIEHVKDDRLFIERMRQLLKKDGTLVLSTPFGQGRGKPSDEPFHYHQLTEEEFRSLFDSFSEKEVFYQRGVTIEPKRTNVHYAFGVAVCKLEHHHHHH,failed
22,MPKVNLYATFRDLTGKSQLELPGATVGEVLENLVRAYPALKEELFEGEGLAERVSVFLEGRDVRYLQGLSTPLSPGATLDLFPPVAGGGFERTFGAFPPWLLERYLEEWGGTREGEGVYRLPGAVVRFREVEPLKVGSLSIPQLRVEVEGEEAERWFERIAFAASRGGG,not failed
23,MVISLVIVAVTATEIFEIVELPFEKTLSAISVGSLFNFSVAVVSKSGYLGVFGLMALESTFIPVPSEVILPLSGYLVYIHTFTFAAIIADAIVASMVGSFIDYYLGLYIGRPIIVKILGFFYVKEDSLVKAENWIDRWGASSVFFARFIPGIRSLISIPAGMLKMKVWVFALMTFLGSVIWSTILVYIGFKAGPYWSSAVHSFSVILDQIIIDAIFAACLAYIGYFIYLKIKTRTKPSY,failed
24,MGDGAVKQGFLYLQQQQTFGKKWRRFGASLYGGSDCALARLELQEGPEKPRRCEAARKVIRLSDCLRVAEAGGEASSPRDTSAFFLETKERLYLLAAPAAERGDWVQAICLLAF,not failed
25,MSDAPTVVAYLGPAGTFTEEALYKFADAGVFGDGEIEQLPAKSPQEAVDAVRHGTAQFAVVAIENFVDGPVTPTFDALDQGSNVQIIAEEELDIAFSIMVRPGTSLADVKTLATHPVGYQQVKNWMATTIPDAMYLSASSNGAGAQMVAEGTADAAAAPSRAAELFGLERLVDDVADVRGARTRFVAVQAQAAVSEPTGHDRTSVIFSLPNVPGSLVRALNEFAIRGVDLTRIESRPTRKVFGTYRFHLDISGHIRDIPVAEALRALHLQAEELVFVGSWPSNRAEDSTPQTDQLAKLHKADEWVRAASEGRKLN,not failed
